In experiment [1] the target is T1, human serum albumin (human, UniProt P02768 25-609).
T1 construct: mature; also called human Alb
The experiment in a line: ELISA, coated albumin, E. coli supernatant. (In an ELISA, binding on a coated surface is turned into a signal by an enzyme label.)

For another experiment, the target named is T2, dog serum albumin (dog, UniProt P49822 25-608).
T2 construct: mature; also called dog Alb; Canine albumin
The experiment in a line: ELISA, coated albumin, E. coli supernatant.

Another experiment deals with T3, horse serum albumin (horse, UniProt P35747 25-607).
T3 construct: mature; also called horse Alb; Equine albumin
The experiment in a line: ELISA, coated albumin, E. coli supernatant.

Experiment [2] deals with T1, human serum albumin. The experiment in a line: ELISA, E. coli supernatant.
The target in experiment [3] is T4, tetanus neurotoxin (TeNT), authentic tetanus holotoxin (Clostridium tetani, UniProt P04958 2-1315). The experiment in a line: competition ELISA on TeNT, binder biotinylated; competitor SVT08L.
For experiment [4], the target named is T4, tetanus neurotoxin (TeNT), authentic …. As to the kind of experiment: competition ELISA on TeNT, binder biotinylated; competitor SVT16L.
Experiment [5] shares this target. As to the kind of experiment: competition ELISA on TeNT, binder biotinylated; competitor mAb 14F5.
For experiment [6] the target is unchanged. The experiment in a line: competition ELISA on TeNT, binder biotinylated; competitor SVT15L-3FW4M.
Experiment [7] shares this target. As to the kind of experiment: competition ELISA on TeNT, binder biotinylated; competitor SVT06L.
Experiment [8] shares this target. As to the kind of experiment: competition ELISA on TeNT, binder biotinylated; competitor SVT02L.
For experiment [9] the target is unchanged. As to the kind of experiment: ELISA, TeNT captured with cAb-TT2, unlabelled binder.
The target is the same in experiment [10]. As to the kind of experiment: competition ELISA on TeNT, binder biotinylated; competitor mAb 6F57.
For experiment [11] the target is unchanged. As to the kind of experiment: competition ELISA on TeNT, binder biotinylated; competitor mAb 11n185.
Experiment [12] shares this target. As to the kind of experiment: competition ELISA on TeNT, binder biotinylated; competitor SVT03L.
Experiment [13] shares this target. The experiment in a line: competition ELISA on TeNT, binder biotinylated; competitor SVT13L.
Experiment [14] concerns the target T5, recombinant tetanus toxin fragment C (rTTC) (Clostridium tetani, UniProt P04958 865-1315).
T5 sequence: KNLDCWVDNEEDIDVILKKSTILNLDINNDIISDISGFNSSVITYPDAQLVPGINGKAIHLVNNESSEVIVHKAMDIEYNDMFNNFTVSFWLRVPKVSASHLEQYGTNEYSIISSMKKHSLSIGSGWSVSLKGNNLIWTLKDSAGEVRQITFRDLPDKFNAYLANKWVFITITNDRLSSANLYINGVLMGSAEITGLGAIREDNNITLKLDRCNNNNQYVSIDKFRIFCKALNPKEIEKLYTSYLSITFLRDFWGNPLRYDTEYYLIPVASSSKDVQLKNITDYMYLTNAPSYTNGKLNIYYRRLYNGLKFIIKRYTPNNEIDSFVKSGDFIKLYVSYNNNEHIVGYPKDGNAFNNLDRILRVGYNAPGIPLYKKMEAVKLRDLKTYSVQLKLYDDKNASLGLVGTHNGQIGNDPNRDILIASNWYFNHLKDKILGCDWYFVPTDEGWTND
The experiment in a line: ELISA, directly coated rTTC, unlabelled binder.

Experiment [15] addresses T4, tetanus neurotoxin (TeNT), authentic …. The experiment in a line: ELISA, directly coated TeNT, unlabelled binder.
Experiment [16] shares this target. The experiment in a line: competition ELISA on TeNT, binder biotinylated; competitor mAb 6E7.
Experiment [17] shares this target. The experiment in a line: GT1b-TeNT inhibition ELISA, EC at A450 0.59.
For experiment [18] the target is unchanged. The experiment in a line: competition ELISA on TeNT, binder biotinylated; competitor SVT22L.
Experiment [19] has the same target. The experiment in a line: ELISA, TeNT captured with cAb-TT2, biotinylated binder.
Experiment [20] shares this target. As to the kind of experiment: competition ELISA on TeNT, binder biotinylated; competitor SVT34L.
Experiment [21] shares this target. As to the kind of experiment: ELISA, TeNT captured with coated mAb 6E7.
Experiment [22] has the same target. The experiment in a line: competition ELISA on TeNT, binder biotinylated; competitor SVT15L.
The target is the same in experiment [23]. As to the kind of experiment: ELISA, directly coated TeNT.
Experiment [24] has as its target T5, recombinant tetanus toxin fragment C …. As to the kind of experiment: ELISA, rTTC captured with coated mAb 6E7.
Experiment [25] deals with T4, tetanus neurotoxin (TeNT), authentic …. As to the kind of experiment: ELISA, directly coated TeNT, biotinylated binder.
Experiment [26] shares this target. As to the kind of experiment: GT1b-TeNT inhibition ELISA, unlabelled binder.
In experiment [27] the target is T6, dog albumin (dog Alb) (dog, UniProt P49822 25-608).
T6 construct: also called Canine albumin
As to the kind of experiment: ELISA: coated dog Alb, anti-his6 PO.

In experiment [28] the target is T6, dog albumin (dog Alb). The experiment in a line: ELISA: coated dog Alb, anti-his6 PO. The source holds these as a separate data set.

B1: SVA16 (VHH, not shown: large carriers)
VHH: QVQLQESGGGVVQAGGSLRLSCAASGRTVSSSAMGWFRLAPGKEREFVVGISRSGGSIFYADSVKGRFTISRKNAKNTVDLQMNSLKPEDTAVYYCAAGYRPGYGDYGRVFYREDEYDDWGQGTQVTVSS
As to B1, the “absorbance at 450 nm” value with human serum albumin [1] came to 0.083 A450; with dog serum albumin, 2.02 A450; in the experiment with horse serum albumin it was 2.11 A450. For the same molecule, the binding result with human serum albumin [2] is given as “no binding”.

B2: SVT16L (VHH)
VHH: QVQLQESGGGSVQAGDSLRLSCAASGRTISNYAMGWFRQAPGKQREFVAAISRSDNTYYTDSVKGRFTISRDNAKNTLYLQMNSLKPEETAVYYCAADPNLMYESKWKYRALEAWGQGTLVTVSS
In the case of B2, the “% inhibition of binding” value in experiment [3] is 2%; in experiment [4] it was 95%; in [5], 6%; in [6], 17%; in experiment [7], -8%; in [8], 13%. Further, the “% inhibition of binding” value in experiment [10] was 2%; in experiment [11] it was -2%; in experiment [12], -1%; in experiment [13], 96%; in experiment [16], 6%; in [18], 96%. Besides, the “% inhibition of binding” value is 95% in experiment [20] and 12% in experiment [22]. Further, in experiment [9], the “EC resulting in A450 0.15” value was 3.2 ng/mL. For the same molecule, the “maximal absorbance at 450 nm” value stood at 0.363 in experiment [9]; 1.01 in experiment [14]; 1.57 in [15]; 0.971 in experiment [19]; 1.42 in experiment [25]. Besides, the “EC resulting in A450 0.2” value in experiment [15] came to 1.1 ng/mL; in [19], 1.6 ng/mL. Further, the “concentration giving A450 of 0.59” value in experiment [17] is 0.047 µg/mL. Also, the results for the “absorbance at 450 nm” value in [21], in [23] and in experiment [24] were 1.13, 1.27 and 1.38, respectively. In addition, the “EC resulting in A450 0.4” value in experiment [25] amounted to 0.52 ng/mL. Besides, in experiment [26], the “minimal absorbance at 450 nm” value stood at 0.129.

B3: SVT15L-3FW4M (VHH)
VHH: QVQLQESGGGLVQTGGSLRLSCRASGRAFANYHFGWFRQAPGKDREFVASISWKGGSTYYANFALGRFTSSVDRAESSVYLQMSGLTPEDTATYYCAAHDGGDWNYHTGMDYWGQGTQVTVSS
With B3, the “% inhibition of binding” value in [3] turned out to be 6%; in experiment [4], 3%; in experiment [5], 2%; in experiment [6] it was 95%; in experiment [7], 7%; in experiment [8], 10%. Moreover, the “% inhibition of binding” value in experiment [10] was 6%; in experiment [11] it was -1%; in [12] it was -8%; in experiment [13] it was -5%; in [16], 6%; in experiment [18], 4%. Further, the “% inhibition of binding” value in [20] was determined as 3%; in experiment [22], 96%. For the same molecule, in [9], the “EC resulting in A450 0.15” value came out at 9.8 ng/mL. Also, the “maximal absorbance at 450 nm” value amounted to 0.195 in experiment [9]; 0.206 in experiment [14]; 0.817 in experiment [15]; 0.697 in experiment [19]; 1.37 in experiment [25]. The entries for the “EC resulting in A450 0.2” value in [15] and in [19] were 3.8 ng/mL and 3.5 ng/mL, respectively. Besides, the “concentration giving A450 of 0.59” value in experiment [17] was determined as 0.039 µg/mL. In addition, the “absorbance at 450 nm” value in [21] turned out to be 0.236; in [23] it was 0.477; in [24] it was 0.528. The “EC resulting in A450 0.4” value in experiment [25] was 2 ng/mL. In [26], the “minimal absorbance at 450 nm” value is 0.127.

B4: SVA02 (VHH, not shown: large carriers)
VHH: QVQLQQSGGGLVQAGGSLRLSCAASGRFFSRQVMGWFRQAPGKDREFVGVISWDNGVTFYSDSVKGRFTMSREIAKKTVHLQMNSLKPEDTAVYYCAAGNALHSRYYSPSKYDYWGPGTQVTVSS
Consider B4, for which the “absorbance at 450 nm” value is 0.065 A450 with human serum albumin [1], 1.87 A450 in the experiment with dog serum albumin and 1.9 A450 with horse serum albumin. Moreover, the binding result with human serum albumin [2] is on record as “no binding”.

B5: SVA06 (VHH)
VHH: QVQLQESGGRLVQAEDSLRLSCAASGRTFVSYDMGWFRQAPGKEREFVAAINWRGYTTDYVDSVKGRFFISRDIAKSTVYLQMNNLKPEDTAVYYCAARQMSGSSRYSPPGRVGYDFWGQGTQVTVSS
For B5, the “absorbance at 450 nm” value turned out to be 0.067 A450 with human serum albumin [1], 1.99 A450 in the experiment with dog serum albumin and 1.66 A450 with horse serum albumin. For the same molecule, the binding result with human serum albumin [2] is listed as “no binding”.

B6: SVT16-L123Q-GS2-SVA12M2-H6 (bispecific antibody)
chain: QVQLQESGGGSVQAGDSLRLSCAASGRTISNYAMGWFRQAPGKQREFVAAISRSDNTYYTDSVKGRFTISRDNAKNTLYLQMNSLKPEETAVYYCAADPNLMYESKWKYRALEAWGQGTQVTVSSGGGGSGGGSEVQLVESGGGLVQAGGSLRLSCAASGRTFSYYPMAWFRQAPGQEREFVAAIIGADTTYYADSLKGRFTISRDNAKNMVYLQMNSLKPEDTAVYYCAARNTYWSDVYYREGQYTNWGQGTQVTVSSHHHHHH
B6 showed a maximal absorbance value in the experiment with dog albumin (dog Alb) [27] of 1.78 A450. Also, the “Effective SDA Concentration at A450 0.2” value in the experiment with dog albumin (dog Alb) [28] worked out at 34 ng/mL.

The record behind these values is patent publication US20240376185A1 (SMIVET B V, published 2024).
